Here are results for nine variants from the supplement of paper PMC7125110.

± gives the standard error. For part of these data: This sample holds only a part of the variants without activity. Some results are limits rather than exact numbers.

B1: glmS ribozyme (parent)
chain: AUAAAAGCGCCAGAACUACAGAAAUGUAGUUGACGAGGAGGAGGUUUAUCGAAUUUUCGGCGGAUGCCUCCAAA

Conditions in all cases: with glucosamine-6-phosphate
Series [1] covers variants of B1. Kind of series: kcat; higher = faster cleavage; RNA array. Summed up:
(§1)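 The measurements used barcoded ribozyme variants on sequenced MiSeq chips, transcribed in situ by E. coli RNA polymerase and tracked at 37 °C with a hybridised Cy3 probe. Glucosamine-6-phosphate, 40 μM to 10 mM in HEPES/KCl/Mg(OAc)2 buffer, was flowed in while tiles were imaged over ~14 h. Baseline-normalised signals, also normalised to non-cleaving reference variants, gave per-tile medians that were fit to one- or two-exponential decays for kobs. kcat and KM resulted from weighted Michaelis–Menten fits across concentrations.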

In series [2] the parent is B1. Kind of series: KM; higher = weaker cofactor use; RNA array. Summed up: as §1
In series [3] the parent is B1. Description: self-cleavage kobs at 40 uM GlcN6P; higher = faster cleavage; RNA array. The method, boiled down:
as §1

In series [4] the parent is B1. Description: self-cleavage kobs at 160 uM GlcN6P; higher = faster cleavage; RNA array. The method, boiled down:
as §1

Series [5] covers variants of B1. Description: self-cleavage kobs at 640 uM GlcN6P; higher = faster cleavage; RNA array. The method, boiled down:
as §1

The variants in series [6] derive from B1. Kind of series: self-cleavage kobs at 2500 uM GlcN6P; higher = faster cleavage; RNA array. Summed up:
as §1

Series [7] covers variants of B1. Description: self-cleavage kobs at 10000 uM GlcN6P; higher = faster cleavage; RNA array. The method, boiled down: as §1

On to AUAAAAGCGCCAGAGCUACAGAAAUGUAGUUGACGAGGAUGAGGUUUAUCGAAUUUUCGGCGGAUGCCUCCAAA [A15G G40U], for which the turnover number (kcat) with glucosamine-6-phosphate [1] turned out to be 0.00552 ± 0.00099 s⁻¹. For the same variant, in the series with glucosamine-6-phosphate [2], the KM was found to be 1330 ± 360 µM. Also, in the series with glucosamine-6-phosphate [3], the “self-cleavage kobs at 40 uM GlcN6P” value was determined as 0.000202 ± 2.1e-05 s⁻¹. Besides, the “self-cleavage kobs at 160 uM GlcN6P” value in the series with glucosamine-6-phosphate [4] stood at 0.000466 ± 6.2e-05 s⁻¹. In the series with glucosamine-6-phosphate [5], the “self-cleavage kobs at 640 uM GlcN6P” value turned out to be 0.00181 ± 0.0002 s⁻¹. Further, the “self-cleavage kobs at 2500 uM GlcN6P” value with glucosamine-6-phosphate [6] is 0.00448 ± 0.00068 s⁻¹. Moreover, in the series with glucosamine-6-phosphate [7], the “self-cleavage kobs at 10000 uM GlcN6P” value turned out to be 0.00473 ± 0.00045 s⁻¹.

For AUAAACGCGCCAGAGCUACAGAAAUGUAGUUGACGAGGAGGAGGUUUAUCGAAUUUUCGGCGGAUGCCUCCAAA [A6C A15G], in the series with glucosamine-6-phosphate [1], the turnover number (kcat) worked out at 0.00015 ± 3.4e-06 s⁻¹. Besides, the KM with glucosamine-6-phosphate [2] worked out at 2500 ± 150 µM. For the same variant, in the series with glucosamine-6-phosphate [5], the “self-cleavage kobs at 640 uM GlcN6P” value is 3.25e-05 ± 1.4e-05 s⁻¹. Further, the “self-cleavage kobs at 2500 uM GlcN6P” value with glucosamine-6-phosphate [6] amounted to 7.37e-05 ± 1.3e-05 s⁻¹. In addition, in the series with glucosamine-6-phosphate [7], the “self-cleavage kobs at 10000 uM GlcN6P” value turned out to be 0.000121 ± 1.6e-05 s⁻¹.

Turning to AUAAAAGCGCCAGAACUACAGAAAUGUAGUCGACGAGGAGGAGGUUUAUCGAAUUUUCGGCGGAUGCCUACAAA [U31C C70A], the catalytic constant (kcat) with glucosamine-6-phosphate [1] turned out to be 6.32e-05 ± 4.7e-06 s⁻¹. The KM with glucosamine-6-phosphate [2] was 135 ± 56 µM. Besides, the “self-cleavage kobs at 160 uM GlcN6P” value in the series with glucosamine-6-phosphate [4] was determined as 2.96e-05 ± 1.2e-05 s⁻¹. For the same variant, the “self-cleavage kobs at 640 uM GlcN6P” value in the series with glucosamine-6-phosphate [5] stood at 5.83e-05 ± 9.7e-06 s⁻¹. Further, the “self-cleavage kobs at 2500 uM GlcN6P” value in the series with glucosamine-6-phosphate [6] was found to be 5.7e-05 ± 1.6e-05 s⁻¹. Besides, in the series with glucosamine-6-phosphate [7], the “self-cleavage kobs at 10000 uM GlcN6P” value stood at 5.89e-05 ± 1.2e-05 s⁻¹.

As for AUAAAAGCGCCUGAACUACAGAAAUGUAGUUGACGAGGAGGAGGUUUAUCGAAUUUUCGGUGGAUGCCUCCAAA [A12U C61U], the turnover number (kcat) in the series with glucosamine-6-phosphate [1] was found to be 2.71e-05 ± 7.4e-06 s⁻¹. The “self-cleavage kobs at 2500 uM GlcN6P” value with glucosamine-6-phosphate [6] came to 3.1e-05 ± 1.2e-05 s⁻¹.

Regarding AUAAAAGCGCCAGAACUACAGAAAUGUAGUUGACGAGGAUGAGGUUUAUCGAAUUUCCGGCGGAUGCCUCCAAA [G40U U57C], in the series with glucosamine-6-phosphate [1], the kcat came to 2.46e-05 ± 1.1e-05 s⁻¹. For the same variant, in the series with glucosamine-6-phosphate [3], the “self-cleavage kobs at 40 uM GlcN6P” value was less than 1e-05 s⁻¹. Besides, the “self-cleavage kobs at 2500 uM GlcN6P” value with glucosamine-6-phosphate [6] worked out at 3.3e-05 ± 1.4e-05 s⁻¹.

AUAAAAGCGCCAGAACUACAGAAAUGUAUUUGACGAGGAGGAGGUUUAUCGAAUUUUCGGCGGAUGGCUCCAAA [G29U C67G]: the kcat with glucosamine-6-phosphate [1] is 0.000311 ± 6.2e-05 s⁻¹. Moreover, the KM in the series with glucosamine-6-phosphate [2] amounted to 3390 ± 1100 µM. For the same variant, the “self-cleavage kobs at 160 uM GlcN6P” value with glucosamine-6-phosphate [4] is 2.38e-05 ± 1e-05 s⁻¹. For the same variant, the “self-cleavage kobs at 640 uM GlcN6P” value with glucosamine-6-phosphate [5] is 5.43e-05 ± 5.8e-06 s⁻¹. For the same variant, the “self-cleavage kobs at 2500 uM GlcN6P” value with glucosamine-6-phosphate [6] came out at 0.000111 ± 1.3e-05 s⁻¹. For the same variant, in the series with glucosamine-6-phosphate [7], the “self-cleavage kobs at 10000 uM GlcN6P” value was found to be 0.000251 ± 2.4e-05 s⁻¹.

Regarding AUAAAAGCGCCAGAACUACAGAAAUGUAGUUAACGAGGAGGAGAUUUAUCGAAUUUUCGGCGGAUGCCUCCAAA [G32A G44A], the kcat in the series with glucosamine-6-phosphate [1] amounted to 6.55e-05 ± 1.7e-05 s⁻¹.

For the variant AUAAAAGCGCCGGAUCUACAGAAAUGUAGUUGACGAGGAGGAGGUUUAUCGAAUUUUCGGCGGAUGCCUCCAAA [A12G A15U], in the series with glucosamine-6-phosphate [1], the kcat came out at 0.000449 ± 5.3e-05 s⁻¹. For the same variant, the KM with glucosamine-6-phosphate [2] was found to be 5850 ± 1100 µM. For the same variant, the “self-cleavage kobs at 640 uM GlcN6P” value in the series with glucosamine-6-phosphate [5] was 4.86e-05 ± 6.8e-06 s⁻¹. Besides, the “self-cleavage kobs at 2500 uM GlcN6P” value in the series with glucosamine-6-phosphate [6] was determined as 0.000123 ± 1.6e-05 s⁻¹. Besides, the “self-cleavage kobs at 10000 uM GlcN6P” value with glucosamine-6-phosphate [7] stood at 0.000288 ± 2.6e-05 s⁻¹.

In the case of AUAAAAGCGCCAGAACUACAGAAAUGUAGCUGACGAGGAGGAGGUUUAUCGAAUUUUCGGCGGAUAUCUCCAAA [U30C G66A C67U], the turnover number (kcat) with glucosamine-6-phosphate [1] turned out to be 6.3e-05 ± 4e-06 s⁻¹. The Michaelis constant (KM) in the series with glucosamine-6-phosphate [2] is 2940 ± 580 µM. Besides, in the series with glucosamine-6-phosphate [6], the “self-cleavage kobs at 2500 uM GlcN6P” value was found to be 2.96e-05 ± 1.2e-05 s⁻¹. Besides, the “self-cleavage kobs at 10000 uM GlcN6P” value with glucosamine-6-phosphate [7] worked out at 4.86e-05 ± 1e-05 s⁻¹.

What is called kcat is the maximal rate divided by the concentration of active sites. The KM is the substrate concentration at which the rate is half of its maximum.
